From PMC10516904, “Dual enzyme-powered chemotactic cross β amyloid based functional nanomotors” (Nature Communications, 2023)

Molecular target: the molecule itself
Experiment: TEM, SEM, AFM, CD and FTIR of the assembled peptide; peptide assembled in 40% acetonitrile/water with 0.1% TFA for a month

B1: Ac-KLVFFAL-CONH2 (peptide)
peptide: Ac-KLVFFAL-NH2
notes: also called Ac-KL nanotubes; amylobots (chassis); source: short nanotubes by probe sonication
binding result: binds
